Data reported in patent US20150290289, “METHOD OF PROMOTING WOUND HEALING” (Agency for Science, Technology and Research, published 2015).
Residue numbers refer to the chain shown, from its start.

T1: KSRP (KHSRP) (UniProt Q92945 Q92945:2-711)
T1 sequence: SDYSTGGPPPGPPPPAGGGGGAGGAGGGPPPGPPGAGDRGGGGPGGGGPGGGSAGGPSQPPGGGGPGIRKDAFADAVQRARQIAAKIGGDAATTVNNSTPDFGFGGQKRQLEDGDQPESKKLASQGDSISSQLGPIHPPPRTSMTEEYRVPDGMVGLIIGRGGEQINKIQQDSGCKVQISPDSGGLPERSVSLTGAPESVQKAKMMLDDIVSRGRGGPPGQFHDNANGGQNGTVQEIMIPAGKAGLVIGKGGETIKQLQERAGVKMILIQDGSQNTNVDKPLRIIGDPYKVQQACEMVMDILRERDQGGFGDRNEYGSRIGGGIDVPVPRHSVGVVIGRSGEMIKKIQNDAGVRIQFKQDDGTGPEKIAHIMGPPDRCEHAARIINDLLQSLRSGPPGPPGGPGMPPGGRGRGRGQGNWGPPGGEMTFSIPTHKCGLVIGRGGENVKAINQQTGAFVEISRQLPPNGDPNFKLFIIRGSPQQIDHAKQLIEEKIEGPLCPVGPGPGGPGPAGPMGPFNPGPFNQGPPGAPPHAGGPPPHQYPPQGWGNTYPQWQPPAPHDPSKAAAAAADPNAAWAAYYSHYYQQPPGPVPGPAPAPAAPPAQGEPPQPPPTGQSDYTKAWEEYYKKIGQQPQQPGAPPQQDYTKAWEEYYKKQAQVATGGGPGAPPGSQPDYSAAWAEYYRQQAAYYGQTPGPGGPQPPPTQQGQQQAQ

B1: pre-miR-198 wild type (ssRNA)
RNA: UCAUUGGUCCAGAGGGGAGAUAGGUUCCUGUGAUUUUUCCUUCUUCUCUAUAGAAUAAAUGA
B2: pre-miR-198 Mut-1 (ssRNA)
RNA: B1 RNA with G30C, G32C
modifications: [NONE]

Tests used:
KSRP (KHSRP) [1] = target: T1, KSRP (KHSRP); experiment: EMSA; 0.5 uM KSRP, 5 mM MgCl2, 50 mM KCl, yeast tRNA, pH 7.4, room temperature; details: tags: recombinant, Origene; label: 32P-UTP; hairpin
Experimental: (§1) The pre-miR-198 substrate for gel retardation assay was prepared as described above. Pre-miR-198 transcripts with mutated terminal loop and stem sequences (FIG. 11B) were generated by mutating the parental plasmid (pBSKS) constructs with Quickchange site directed mutagenesis Kit (Stratagene). Recombinant KSRP protein (0.5 μM) was incubated with the wild type or mutant pre-miR-198 transcripts in 20 μl of reaction buffer containing 30 mM Tris HCl, pH 7.4, 5 mM MgCl₂, 50 mM KCl, 0.5 mM DTT, 40 u/ml of RNaseOUT, 250 μg/ml of yeast tRNA and 10% glycerol. After 30 min at room temperature, reaction products were resolved through 6% native polyacrylamide gel electrophoresis. Gel was dried and the protein RNA complex and unbound RNA were visualized by phosphorimaging.

KSRP (KHSRP) [2] = target: T1, KSRP (KHSRP); experiment: EMSA; binding abrogated; 0.5 uM KSRP; details: tags: recombinant, Origene; label: 32P-UTP; hairpin
Experimental: as §1

Binder | binding result (KSRP (KHSRP) [1]) | binding result (KSRP (KHSRP) [2])
B1 | binds | 
B2 |  | no binding
